The values below come from article PMC11997217, “Inactivation of GH3.5 by COP1-mediated K63-linked ubiquitination promotes seedling hypocotyl elongation” (Nature Communications, 2025).

This test deals with T1, MBP-COP1 (Arabidopsis, UniProt P43254 1-675).
T1 construct: CONSTITUTIVELY PHOTOMORPHOGENIC 1 (COP1), Arabidopsis; full-length COP1 fused with MBP-tag; The plasmid for full-length MBP-COP1 is not described in the methods; only its expression and purification are; also called CONSTITUTIVELY PHOTOMORPHOGENIC 1; full-length COP1; source: E. coli BL21, purified (amylose resin); not shown: MBP, N-terminal, kept
T1 sequence (looked up): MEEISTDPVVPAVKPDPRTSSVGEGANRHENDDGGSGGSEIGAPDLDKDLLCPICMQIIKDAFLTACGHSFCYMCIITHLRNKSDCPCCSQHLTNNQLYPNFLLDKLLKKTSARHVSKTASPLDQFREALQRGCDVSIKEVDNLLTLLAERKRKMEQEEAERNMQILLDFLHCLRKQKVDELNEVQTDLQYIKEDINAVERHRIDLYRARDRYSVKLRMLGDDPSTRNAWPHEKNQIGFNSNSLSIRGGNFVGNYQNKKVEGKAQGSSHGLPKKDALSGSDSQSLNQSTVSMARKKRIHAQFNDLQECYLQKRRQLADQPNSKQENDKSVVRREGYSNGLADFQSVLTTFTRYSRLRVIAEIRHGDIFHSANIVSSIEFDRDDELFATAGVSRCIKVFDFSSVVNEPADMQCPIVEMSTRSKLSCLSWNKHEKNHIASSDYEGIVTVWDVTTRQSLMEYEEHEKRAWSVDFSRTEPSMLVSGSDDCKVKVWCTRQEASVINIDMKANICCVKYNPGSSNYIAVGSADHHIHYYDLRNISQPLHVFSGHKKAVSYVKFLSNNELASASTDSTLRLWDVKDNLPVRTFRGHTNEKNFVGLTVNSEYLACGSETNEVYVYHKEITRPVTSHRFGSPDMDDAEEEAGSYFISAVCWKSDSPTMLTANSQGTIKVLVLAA
In words: pull-down; 1 μg GST-GH3.5 and 1 μg MBP-tagged COP1 in 25 mM Tris-HCl pH 7.5, 100 mM NaCl, 0.25% NP40, 4 °C; captured on amylose resin; washed with 500 mM NaCl, 0.5% NP40; blots with anti-MBP and anti-GST. Conditions: both partners purified.

B1: GST-GH3.5 (enzyme, Arabidopsis, UniProt O81829 1-612, looked up)
chain: MPEAPKKESLEVFDLTLDQKNKQKLQLIEELTSNADQVQRQVLEEILTRNADVEYLRRHDLNGRTDRETFKNIMPVITYEDIEPEINRIANGDKSPILSSKPISEFLTSSGTSGGERKLMPTIEEELDRRSLLYSLLMPVMSQFVPGLENGKGMYFLFIKSESKTPGGLPARPVLTSYYKSSHFKERPYDPYTNYTSPNETILCSDSYQSMYSQMLCGLCQHQEVLRVGAVFASGFIRAIKFLEKHWIELVRDIRTGTLSSLITDPSVREAVAKILKPSPKLADFVEFECKKSSWQGIITRLWPNTKYVDVIVTGTMSQYIPTLDYYSNGLPLVCTMYASSECYFGVNLRPLCKPSEVSYTLIPSMAYFEFLPVHRNNGVTNSINLPKALTEKEQQELVDLVDVKLGQEYELVVTTYAGLCRYRVGDLLRVTGFKNKAPQFSFICRKNVVLSIDSDKTDEVELQNAVKNAVTHLVPFDASLSEYTSYADTSSIPGHYVLFWELCLDGNTPIPPSVFEDCCLAVEESFNTVYRQGRVSDKSIGPLEIKIVEPGTFDKLMDYAISLGASINQYKTPRCVKFAPIIELLNSRVVDSYFSPKCPKWVPGHKQWGSN
notes: the GH3.5 CDS inserted into BamHI/EcoRI of pGEX4T-1; also called GRETCHEN HAGEN 3.5; source: E. coli BL21, purified (Glutathione Sepharose 4B); not shown: GST, N-terminal, kept
In the case of B1, the binding result is listed as “binds”.
